Measured values from patent US20210206856A1 (PANDION OPERATIONS, published 2021).

T1: recombinant mouse MAdCAM-1 (mouse, UniProt Q61826 22-365, limits assumed)
T1 construct: also called mMAdCAM-1; mouse MAdCAM-Fc
T1 sequence (looked up): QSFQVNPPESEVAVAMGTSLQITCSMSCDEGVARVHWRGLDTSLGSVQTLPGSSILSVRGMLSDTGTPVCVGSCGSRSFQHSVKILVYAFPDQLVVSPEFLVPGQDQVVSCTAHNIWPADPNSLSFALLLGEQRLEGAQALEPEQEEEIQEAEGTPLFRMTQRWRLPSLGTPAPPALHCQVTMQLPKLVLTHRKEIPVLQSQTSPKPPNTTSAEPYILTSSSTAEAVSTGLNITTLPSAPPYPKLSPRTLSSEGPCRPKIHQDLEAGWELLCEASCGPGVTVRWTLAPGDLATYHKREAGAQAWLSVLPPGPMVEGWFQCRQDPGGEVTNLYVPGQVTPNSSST

T2: human MAdCAM expressed on cells (human, UniProt Q13477 19-382)
T2 construct: whole, on cells; also called MADCAM1
T2 sequence (looked up): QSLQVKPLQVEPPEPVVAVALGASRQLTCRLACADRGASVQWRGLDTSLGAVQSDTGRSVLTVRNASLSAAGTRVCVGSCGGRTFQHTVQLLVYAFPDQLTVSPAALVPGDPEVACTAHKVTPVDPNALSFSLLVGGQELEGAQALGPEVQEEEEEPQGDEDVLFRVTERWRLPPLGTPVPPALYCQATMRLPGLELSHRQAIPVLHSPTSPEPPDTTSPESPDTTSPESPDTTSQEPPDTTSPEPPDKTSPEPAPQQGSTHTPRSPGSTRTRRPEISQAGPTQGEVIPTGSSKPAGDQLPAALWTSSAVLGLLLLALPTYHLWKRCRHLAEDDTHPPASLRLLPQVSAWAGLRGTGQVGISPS

T3: mouse MAdCAM expressed on cells (mouse, UniProt Q61826 22-405)
T3 construct: whole, on cells
T3 sequence (looked up): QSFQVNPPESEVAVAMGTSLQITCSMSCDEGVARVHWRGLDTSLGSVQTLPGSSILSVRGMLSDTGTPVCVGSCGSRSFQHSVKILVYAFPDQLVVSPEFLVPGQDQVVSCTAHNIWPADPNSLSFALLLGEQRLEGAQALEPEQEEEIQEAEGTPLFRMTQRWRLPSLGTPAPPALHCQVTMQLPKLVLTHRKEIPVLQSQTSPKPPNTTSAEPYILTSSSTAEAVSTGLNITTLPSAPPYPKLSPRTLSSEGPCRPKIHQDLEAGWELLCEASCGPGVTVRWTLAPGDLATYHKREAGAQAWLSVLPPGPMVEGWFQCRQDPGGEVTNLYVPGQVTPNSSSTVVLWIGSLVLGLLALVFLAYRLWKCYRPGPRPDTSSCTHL

T4: mouse PD-1 on cells (mouse, UniProt Q02242 25-288)
T4 sequence (looked up): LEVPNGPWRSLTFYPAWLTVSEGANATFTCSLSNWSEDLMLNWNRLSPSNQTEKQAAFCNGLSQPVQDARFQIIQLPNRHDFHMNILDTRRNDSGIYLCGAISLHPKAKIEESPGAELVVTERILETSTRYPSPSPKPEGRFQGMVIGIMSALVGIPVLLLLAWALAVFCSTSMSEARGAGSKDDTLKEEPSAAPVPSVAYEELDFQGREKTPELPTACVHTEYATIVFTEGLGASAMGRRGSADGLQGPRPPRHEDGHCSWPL

T5: CD25 (Homo sapiens (Human), UniProt P01589 22-240)
T5 construct: also called IL-2R alpha chain
T5 sequence: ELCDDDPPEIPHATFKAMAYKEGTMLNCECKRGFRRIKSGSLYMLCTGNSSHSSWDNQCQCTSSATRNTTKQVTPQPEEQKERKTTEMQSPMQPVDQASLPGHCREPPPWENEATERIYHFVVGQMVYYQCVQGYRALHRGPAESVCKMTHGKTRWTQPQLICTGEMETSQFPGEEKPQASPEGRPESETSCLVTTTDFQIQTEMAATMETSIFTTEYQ


How the values were obtained:
[1] = target: T1, recombinant mouse MAdCAM-1; assay: Octet
[2] = target: T2, human MAdCAM expressed on cells; assay: cell binding
[3] = target: T3, mouse MAdCAM expressed on cells; assay: cell binding
[4] = target: T4, mouse PD-1 on cells; assay: cell-based or functional assay
[5] = target: T5, CD25; assay: ELISA, CD25 coated plate

Row | binding result [1] | binding result [2] | binding result [3] | Mouse agonist-CTG: IC50, IgG1 [4] | EC50 [5] | Binder
1 | no binding | binds | no binding | – | – | MAdCAM Antibody Table 2 Clone 22 (antibody, human IgG1, V domains shown) VH: EVQLLESGGGLVQPGGSLRLSCAASGFTFDDYAMHWVRQAPGKGLEWVSGISWNSGSIGYADSVKGRFTISRDNSKNTLYLQMNSLRAEDTAVYYCAKDIVAAGHYYYGMDVWGQGTTVTVSS VL: DIQMTQSPSSLSASVGDRVTITCQASQDISNYLNWYQQKPGKAPKLLIYDASNLETGVPSRFSGSGSGTDFTLTISSLQPEDFATYYCQQSYSTPLTFGGGTKVEIK
2 | no binding | binds | no binding | – | – | MAdCAM Antibody Table 2 Clone 23 (antibody, human IgG1, V domains shown) VH: EVQLLESGGGLVQPGGSLRLSCAASGFTFDDYAMHWVRQAPGKGLEWVSYIDTSSSHLYYADSVKGRFTISRDNSKNTLYLQMNSLRAEDTAVYYCARDEAAAGYYGMDVWGQGTTVTVSS VL: DIQMTQSPSSLSASVGDRVTITCQAGQDISNYLNWYQQKPGKAPKLLIYDASNLETGVPSRFSGSGSGTDFTLTISSLQPEDFATYYCQQTYSTPITFGQGTKLEIK
3 | no binding | binds | no binding | – | – | MAdCAM Antibody Table 2 Clone 46 (antibody, human IgG1, V domains shown) VH: EVQLLESGGGLVQPGGSLRLSCAASGFSFSSYTMNWVRQAPGKGLEWVSFITSSSRTIYYADSVKGRFTISRDNSKNTLYLQMNSLRAEDTAVYYCARDRRGDYGDSWYFDLWGRGTLVTVSS VL: EIVMTQSPATLSVSPGERATLSCRASQSVRNYLAWYQQKPGQAPRLLIYGASTRATGIPARFSGSGSGTEFTLTISSLQSEDFAVYYCQQYGSSPLTFGGGTKVEIK
4 | – | – | – | < 10 nM | – | PD1AB23 (antibody, IgG1, V domains shown) VH: QVQLVQSGAEVKKPGASVKVSCKASGGTFSNYAISWVRQAPGQGLEWMGWMNPNSGNTGYAQKFQGRVTMTRDTSTSTVYMELSSLRSEDTAVYYCARVNYYYYYGMDVWGQGTTVTVSS VL: DIQMTQSPSSLSASVGDRVTITCQASQDISNYLNWYQQKPGKAPKLLIYKASTLKSGVPSRFSGSGSGTDFTLTISSLQPEDFATYYCQQADNLPFTFGPGTKVDIK
5 | – | – | – | – | < 1 nM | human IL-2 mutein fused N-terminally to human IgG1 Fc domain (SEQ ID NO: 57) (Fc fusion, also called IL-2 N88D V69A, Q74P-G4Sx4-Fc) APTSSSTKKTQLQLEHLLLDLQMILNGINNYKNPKLTRMLTFKFYMPKKATELKHLQCLEEELKPLEEALNLAPSKNFHLRPRDLISDINVIVLELKGSETTFMCEYADETATIVEFLNRWITFSQSIISTLTGGGGSGGGGSGGGGSGGGGSDKTHTCPPCPAPEAAGAPSVFLFPPKPKDTLMISRTPEVTCVVVDVSHEDPEVKFNWYVDGVEVHNAKTKPREEQYNSTYRVVSVLTVLHQDWLNGKEYKCKVSNKALPAPIEKTISKAKGQPREPQVYTLPPSREEMTKNQVSLTCLVKGFYPSDIAVEWESNGQPENNYKTTPPVLDSDGSFFLYSKLTVDKSRWQQGNVFSCSVMHEALHNHYTQKSLSLSPG
6 | – | – | – | < 10 nM | – | PD1AB7 (antibody, IgG1, V domains shown) VH: QVQLVQSGAEVKKPGASVKVSCKASGYSFTGHYIHWVRQAPGQGLEWMGIINPNGGSTTYAQKLQGRVTMTRDTSTSTVYMELSSLRSEDTAVYYCARGKFDFYGDYVTAFDIWGQGTMVTVSS VL: not shown
7 | – | – | – | < 10 nM | – | PD1AB18 (antibody, IgG1, V domains shown) VH: QVQLVQSGAEVKKPGASVKVSCKASGYTFTDYAMHWVRQAPGQGLEWMGWLNPNSGNTGYAPKFQGRVTMTRDTSTSTVYMELSSLRSEDTAVYYCAAGLFIWGQGTMVTVSS VL: DIQMTQSPSSLSASVGDRVTITCRASQSINRWLAWYQQKPGKAPKLLIYDASSLESGVPSRFSGSGSGTDFTLTISSLQPEDFATYYCQQSYSIPITFGQGTRLEIK
8 | no binding | binds | no binding | – | – | MAdCAM Antibody Table 2 Clone 65 (antibody, human IgG1, V domains shown) VH: QVQLVQSGAEVKKPGASVKVSCKASGYTFTSYDINWVRQAPGQGLEWMGWMNPNSGNTGYAQKFQGRVTMTRDTSTSTVYMELSSLRSEDTAVYYCAKDSDYSNLLWDYWGQGTLVTVSS VL: DIQMTQSPSSLSASVGDRVTITCRASQDITNDLGWYQQKPGKAPKLLIYQASSLESGVPSRFSGSGSGTDFTLTISSLQPEDFATYYCQQSYTIPLTFGQGTKVEIK
9 | no binding | binds | no binding | – | – | MAdCAM Antibody Table 2 Clone 29 (antibody, human IgG1, V domains shown) VH: EVQLLESGGGLVQPGGSLRLSCAASGFTFSSYQMSWVRQAPGKGLEWVSYISSSSTYTNYADSVKGRFTISRDNSKNTLYLQMNSLRAEDTAVYYCARANSSSWYDWYFDLWGQGTLVTVSS VL: not shown
10 | – | – | – | < 10 nM | – | PD1AB22 (antibody, IgG1, V domains shown) VH: QVQLVQSGAEVKKPGASVKVSCKASGYTFSGYYMHWVRQAPGQGLEWMGVINPSGGSTSYAQKFQGRVTMTRDTSTSTVYMELSSLRSEDTAVYYCAEGFDYWGQGTLVTVSS VL: EIVMTQSPATLSVSPGERATLSCRASQGVGRSLAWYQQKPGQAPRLLIYGASTRATGIPARFSGSGSGTEFTLTISSLQSEDFAVYYCQQYYTTPITFGQGTRLEIK
11 | – | – | – | < 10 nM | – | PD1AB4 (antibody, IgG1, V domains shown) VH: QVQLVQSGAEVKKPGASVKVSCKASGYSFTTYYMHWVRQAPGQGLEWMGIINPSGGSTSYAQKFQGRVTMTRDTSTSTVYMELSSLRSEDTAVYYCASGWVYWGQGTLVTVSS VL: DIQMTQSPSSLSASVGDRVTITCQASRDIKNYLAWYQQKPGKAPKLLIYAASSLQSGVPSRFSGSGSGTDFTLTISSLQPEDFATYYCQQSYSTPPTFGPGTKVDIK
12 | no binding | binds | no binding | – | – | MAdCAM Antibody Table 2 Clone 74 (antibody, human IgG1, V domains shown) VH: QVQLVQSGAEVKKPGASVKVSCKASGYTFTGYYMHWVRQAPGQGLEWMGIINPSGGNTKYAQKFQGRVTMTRDTSTSTVYMELSSLRSEDTAVYYCTTADYYYYMDVWGKGTTVTVSS VL: DIQMTQSPSSLSASVGDRVTITCRASQGISNYLAWYQQKPGKAPKLLIYAASSLQSGVPSRFSGSGSGTDFTLTISSLQPEDFATYYCQQYYSNADFGQGTKVEIK
13 | – | – | – | < 10 nM | – | PD1AB20 (antibody, IgG1, V domains shown) VH: QVQLVQSGAEVKKPGASVKVSCKASGYTFSDHYMHWVRQAPGQGLEWMGTINPSGGRTSYAQKFQGRVTMTRDTSTSTVYMELSSLRSEDTAVYYCAADNGHASGWLYYYGMDVWGQGTTVTVSS VL: DIQMTQSPSSLSASVGDRVTITCRASQSISNWVAWYQQKPGKAPKLLIYRASTLQSGVPSRFSGSGSGTDFTLTISSLQPEDFATYYCQQSHSLPLTFGPGTKVDIK
14 | – | – | – | < 10 nM | – | PD1AB6 (antibody, IgG1, V domains shown) VH: EVQLLESGGGLVQPGGSLRLSCAASGFTFSNYPMHWVRQAPGKGLEWVALISDDGTNEHYADSVKGRFTISRDNSKNTLYLQMNSLRAEDTAVYYCARDSKFANYYYYYDMDVWGQGTTVTVSS VL: DIQMTQSPSSLSASVGDRVTITCRASQSINNYLSWYQQKPGKAPKLLIYDASNLETGVPSRFSGSGSGTDFTLTISSLQPEDFATYYCQQSYSTPLTFGPGTKVDIK
15 | no binding | binds | no binding | – | – | MAdCAM Antibody Table 2 Clone 24 (antibody, human IgG1, V domains shown) VH: EVQLVESGGGLVKPGGSLRLSCAASGFTFSSYWMSWVRQAPGKGLEWVSRISSDGRITTYAAPVKGRFTISRDDSKNTLYLQMNSLKTEDTAVYYCARGTSYCTGGVCDIDYWGQGTLVTVSS VL: DIQMTQSPSSLSASVGDRVTITCRASQSIGRNLNWYQQKPGKAPKLLIYSASNLQSGVPSRFSGSGSGTDFTLTISSLQPEDFATYYCQQSYSIPLTFGPGTKVDIK
